Consider four molecules from patent US20220380454A1 (University of California, published 2022).

In assay [1] the target is T1, oligomeric Aβ42 (biotin-Aβ42 oligomers) (human, biotin (human biotin-beta-Amyloid (1-42), AnaSpec); position not stated).
T1 construct: Mixture of oligomers prepared from human Aβ42 (24-26 h at 4 °C, supernatant); The number of copies per oligomer is therefore not fixed; also called Aβ oligomers; oligomerized Aβ
Nature of the assay: biotin-Aβ42 oligomers on transfected HEK293T cells, 488-conjugated streptavidin staining. From the text:
Binding assay. HEK293 cells were transiently transfected (polyethylenimine) with expression vectors encoding TdTomato, Celsr3-Flag or control empty vectors (pCAGEN). […] DAPI was used to counterstain cell nuclei; TdTomato was used to monitor construct transfection. Anti-flag antibody was used to stain Celsr3. Fluorescent images were captured with Zeiss LSM 880 fast airyscan using a 63× oil-immersion objective.

The target of assay [2] is T1, oligomeric Aβ42 (biotin-Aβ42 oligomers). The assay can be described thus: biotin-Aβ42 oligomers on transfected HEK293T cells, streptavidin staining.

B1: Frizzled3-HA (receptor, not shown: small tags and cut ends)
chain: HSLFSCEPITLRMCQDLPYNTTFMPNLLNHYDQQTAALAMEPFHPMVNLDCSRDFRPFLCALYAPICMEYGRVTLPCRRLCQRAYSECSKLMEMFGVPWPEDMECSRFPDCDEPYPRLVDLNLVGDPTEGAPVAVQRDYGFWCPRELKIDPDLGYSFLHVRDCSPPCPNMYFRREELSFARYFIGLISIICLSATLFTFLTFLIDVTRFRYPERPIIFYAVCYMMVSLIFFIGFLLEDRVACNASSPAQYKASTVTQGSHNKACTMLFMVLYFFTMAGSVWWVILTITWFLAAVPKWGSEAIEKKALLFHASAWGIPGTLTIILLAMNKIEGDNISGVCFVGLYDVDALRYFVLAPLCLYVVVGVSLLLAGIISLNRVRIEIPLEKENQDKLVKFMIRIGVFSILYLVPLLVVIGCYFYEQAYRGIWETTWIQERCREYHIPCPYQVTQMSRPDLILFLMKYLMALIVGIPSIFWVGSKKTCFEWASFFHGRRKKEIVNESRQVLQEPDFAQSLLRDPNTPIIRKSRGTSTQGTSTHASSTQLAMVDDQRSKAGSVHSKVSSYHGSLHRSRDGRYTPCSYRGMEERLPHGSMSRLTDHSRHSSSHRLNEQSRHSSIRDLSNNPMTHITHGTSMNRVIEEDGTSA
notes: Expressed in transfected HEK293T cells; also called Fzd3-HA; HA-tagged Frizzled3
For the molecule B1, the binding result in assay [1] is recorded as “no binding (tested: 200 nM total peptide, monomer equivalent)”.

B2: mouse Ryk-HA (receptor, UniProt Q01887 35-594, looked up)
chain: RSPALAAAPAGPSVSLYLSEDEVRRLLGLDAELYYVRNDLISHYALSFNLLVPSETNFLHFTWHAKSKVEYKLGFQVDNFVAMGMPQVNISAQGEVPRTLSVFRVELSCTGKVDSEVMILMQLNLTVNSSKNFTVLNFKRRKMCYKKLEEVKTSALDKNTSRTIYDPVHAAPTTSTRVFYISVGVCCAVIFLVAIILAVLHLHSMKRIELDDSISASSSSQGLSQPSTQTTQYLRADTPNNATPITSSSGYPTLRIEKNDLRSVTLLEAKAKVKDIAISRERITLKDVLQEGTFGRIFHGILVDEKDPNKEKQTFVKTVKDQASEVQVTMMLTESCKLRGLHHRNLLPITHVCIEEGEKPMVVLPYMNWGNLKLFLRQCKLVEANNPQAISQQDLVHMAIQIACGMSYLARREVIHRDLAARNCVIDDTLQVKITDNALSRDLFPMDYHCLGDNENRPVRWMALESLVNNEFSSASDVWAFGVTLWELMTLGQTPYVDIDPFEMAAYLKDGYRIAQPINCPDELFAVMACCWALDPEERPKFQQLVQCLTEFHAALGAYV
notes: whole, on cells; Expressed in HEK293T cells; not shown: HA tag
Turning to B2, the binding result in assay [2] is on record as “no binding (tested: 200 nM total peptide, monomer equivalent)”.

B3: human Ryk-Flag (receptor)
chain: PPPLLLLLALLPLLPAPGAAAAPAPRPPELQSASAGPSVSLYLSEDEVRRLIGLDAELYYVRNDLISHYALSFSLLVPSETNFLHFTWHAKSKVEYKLGFQVDNVLAMDMPQVNISVQGEVPRTLSVFRVELSCTGKVDSEVMILMQLNLTVNSSKNFTVLNFKRRKMCYKKLEEVKTSALDKNTSRTIYDPVHAAPTTSTRVFYISVGVCCAVIFLVAIILAVLHLHSMKRIELDDSISASSSSQGLSQPSTQTTQYLRADTPNNATPITSSLGYPTLRIEKNDLRSVTLLEAKGKVKDIAISRERITLKDVLQEGTFGRIFHGILIDEKDPNKEKQAFVKTVKDQASEIQVTMMLTESCKLRGLHHRNLLPITHVCIEEGEKPMVILPYMNWGNLKLFLRQCKLVEANNPQAISQQDLVHMAIQIACGMSYLARREVIHKDLAARNCVIDDTLQVKITDNALSRDLFPMDYHCLGDNENRPVRWMALESLVNNEFSSASDVWAFGVTLWELMTLGQTPYVDIDPFEMAAYLKDGYRIAQPINCPDELFAVMACCWALDPEERPKFQQLVQCLTEFHAALGAYV
notes: not shown: Flag tag
Turning to B3, in assay [2], the binding result is on record as “no binding (tested: 200 nM total peptide, monomer equivalent)”.

B4: Vangl2-Flag (other, not shown: small tags and cut ends)
chain: MDTESQYSGYSYKSGHSRSSRKHRDRRDRHRSKSRDGSRGDKSVTIQAPGEPLLDNESTRGDERDDNWGETTTVVTGTSEHSISHDDLTRIAKDMEDSVPLDCSRHLGVAAGAILALLSFLTPLAFLLLPPLLWREELEPCGTACEGLFISVAFKLLILLLGSWALFFRRPKASLPRVFVLRALLMVLVFLLVISYWLFYGVRILDARERSYQGVVQFAVSLVDALLFVHYLAVVLLELRQLQPQFTLKVVRSTDGASRFYNVGHLSIQRVAVWILEKYYHDFPVYNPALLNLPKSVLAKKVSGFKVYSLGEENSTNNSTGQSRAVIAAAARRRDNSHNEYYYEEAEHERRVRKRRARLVVAVEEAFTHIKRLQEEEQKNPREVMDPREAAQAIFASMARAMQKYLRTTKQQPYHTMESILQHLEFCITHDMTPKAFLERYLAAGPTIQYHKERWLAKQWTLVSEEPVTNGLKDGIVFLLKRQDFSLVVSTKKVPFFKLSEEFVDPKSHKFVMRLQSETSV
With B4, in assay [1], the binding result is on record as “no binding (tested: 200 nM total peptide, monomer equivalent)”.
